Data as given in the domain aggregation screens of Martell et al. (2025).

Assay: soluble fraction after stress (log2 fold change); higher = more stays soluble; pooled small domains, quantitative proteomics
Conditions: stress: 75 degC
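Further: 20 min heating vs room temperature control held 20 min.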

Row | Sequence | soluble fraction (log2)
1 | HMQISLDTKLINLEFSVRANNVFRENQIFTLRDLTSHSKEDLMLMTNFGKTTLYEVNKKLEEHQLKLSQ | -2.43
2 | HMSRAARLALDALPDEWAQFAESRGLAGSAMAETWETFRDYWQAQPGQKGVKADWAATWRNWVRRETQNRG | -0.378
3 | HMNLYENLATHVKNAIRQGVYQPGDRLPSVRRLSEQHRVSQNTAVSAYRLLESHGWLEARPQSGFFARHP | -1.42
4 | HMKGQNRSEITAGARVKVVQKQDQRTGALTEGIVRDILTRSPHHPHGIKVRLESGIVGRVKDVL | -0.312
5 | HMKPDMAVIVGSRTLTFATTTDRQILVLRTDGTMVNRLSMKAGETRTITLPAGVYIVNGKKIIV | -2.35
6 | HMDLPDYYFRVRENGAVVFRVGTENRQRRIEMVEIATVNVKNGNIKPHGEVDLTKADRLAIGEWLAARQAQ | -1.54
7 | HMTQTAVFSKGEQEYYFPLSKVLFFETDGNTINVHTADDIYETRYRLYELEEMLPGSFMRISKSAVVNTNR | 0.00772
8 | HMNVPFGYTIKDGLLVEQPDEKAILDNILTWKKGQMTVAEIAKKTGMETWKIYGILNYWRNK | -1.14
9 | HMRNQIRAVITPVPNQERYTVEMTIDDDAGNLLTLQMAAPDRQQAAEFAQRFQKHPEALYHAVLSVLL | -0.214
10 | HMNEYIVSAEQEGMRLDVFLTEQMEGSRSYIQSLIKGGHVTVGDKVGKANLRLTPDTVIHVEIPEPE | 0.0133
11 | HMPPQPATQNTKAQVMQLAREKELMAGEGRGANVEALEKFANEHGISLRGMTEEQAEQLVKLLMEYTP | -0.239
12 | HMETFGLSQRELQILSQLHKGQPLKEFAASLFITESTLKTHLSAIYRKMSVKNRVQAIEKAKQSGL | -1.4
13 | HMQTTITITNTVTGQKAQFPPPFNPMSLSKIGVDETFEKEVFVDGVDTFGYGLDGYLTFYELKDFLRSYQ | -2.61
14 | HMVIGKHSGSHTLVNDLAKRGITLDKEESATLLEMVRKAAVGLHRSISSDELYGLYKDMKSGQDPFEDS | 0.139
15 | HMDVFTAKTASHIQELREKLGQQAVFGRSDVQNALGLKATRSSALLREMAEHGIIEPVTGYGKGRYHFRS | 0.204
16 | HMKKITTANPLDINRATLAQLDTLPGIGPVTAERIIAYRSKVGRINSLDELKKISGLGGMKFEEIKPLLRV | 0.0978
17 | HMNASITVPDVRNLTVKQASEQLLASGFTPIPYAATKDGVGNDIVYAQDPPPSVLARSGDQITITYNPA | 0.0994
18 | HMELPADLATVLSVDDIRAIALAEVPGSTITGVELEREEGVLVYKVKFNDGSYKLYDANTGELV | 0.105
19 | HMSESGTFRAEAADAGRRLDVALAERLRLSRAAAQRLIAAGLVLVEGSPARKRQILHAGETVAWRAAPP | -1.03
20 | HMTKSTLQRQKIIADLIESGNISSQNQLKGLLKKNSLLITQATLSRDLSELGAIKKRQKDGLLVYVLPK | -0.365
21 | HMGKTRSTDRTRRAILDAASDLMGKHGTSVSLARIAEAAGMSKGGLLHHFPSRNDLIRALGED | 0.011
22 | HMDPPQEVWDLTRSYLDSMNRPVHGHKSPQETYLRQVKSHRLPATALWDYFMAQRFHAVHATSESAA | -0.127
23 | HMKDMKISTQNILKELATNYPDQTAFRKNVIESTAKSMGYTGKDFYPMLTAETRVKIGTYDLSALLQTV | -0.38
24 | HMPRIYSITINPEKIRTVIGPGGKVIKDITAKTGTKIEIDDSGKVDIFSPDEEHARMAVEIINTLTEE | 0.0671
25 | HMVVYDAELLLNINPGMSYEEVKEMLGDPGMIIAGNDAENSVYRWSTGGISFMGRFENGALIRKSIISP | -0.862
26 | HMSGSILVQVSATDLNIRKGPGTNYGTTGKYTGKGTFTIVETRSGQGSNAGWGKLKSGAGWISLDYAKR | -1.54

Row | Sequence | soluble fraction (log2)
27 | HMDTPMQEAVLQRLRDKVAQAAAGSKLPTVRQLIADYGVGQHVIQAALEKLRTEGLITSHVGKGTFVG | 0.325
28 | HMKTSVGSKMMVMANNLSIRKSANLLSEKLADLSKGDMVEYISSTNGWNKVRYNGYVGYVSSYYLKDTGEV | -2.21
29 | HMKSIEVPNLINMTLRKAKIELIDNEFNLDTVIYEYNPNIREGRVSLQIPESGTILKSGSNISIHISKGIP | -1.6
30 | HMATLAVPNLMRLSQGEAMALIRLSGLSIGNVSIDSSMGSPRVIRQEPQASGGMLVLTQGDQVHLWLEGP | -3.75
31 | HMDKTTIKNEQKKQILIFAEMNLFFKAKDVAELLGLQASRARYLLQELVKDGKIQGIGNNKGRKYQLI | -0.729
32 | HMSAQQTFLRDAMRRLNMTRDSFAERIGVRRRALDTWLLPEDSSEYRTMPSIVEKFVGEILGREA | -0.65
33 | HMSGEPKNERQIEVPDVTKKSIREANNILTSEGLRLRIEGTGLAVSQKPAAGTMVEPDTIITVTFQAP | 0.441
34 | HMNDIQIILQEAVARLPKKQQLVFNMKYFDHLKYQEISEILGTSVGGLKASYFQAVKKIENYIINKH | -2.27
35 | HMGPLTMGQRIVRLRTQAGLSQDALAEQLGVSRQSVSKWETDGSVPDLDRLVKLSKVFGVTLDELVKG | -0.202
36 | HMPEQLLNTRIPLEFAGRRFDASLAELFPDYSRSRLAAWIKDGAARLDGETVAPRHTVRGGEQVEILVRM | -0.729
37 | HMSILPGVYRHYKGNHYQVFYLAKHSETLEDMVVYQALYGERGIWVRPASMWNETVDDQGKQVKRFTYI | -3.58
38 | HMDLRVKRTNKMIMEAFIHLVEQKGYDNITVQEIADEAMINRATFYAHFKDKQDLYDHIFKQAI | -0.902
39 | HMTVSIGSVIARERRLRGDTQQELAERLGVSKAAVSKWEVGQSIPDVTLLPRIAAYFSLTLDEL | -2.45
40 | HMNLFKAPMPGLIRTIVVAEGQEVKKGDVILILEAMKMENALKSPADLVVKSIKVQQGQAVEKNQLLIEF | -2.44
41 | HMNIFAHQIGKLRTERHLSQTDVAKRLYVSRQAVSKWENGDAEPSLDNLIALAKLFNVSLDNLITGQ | -1.78
42 | HMQYPSSLDSRAKQSLYDNLERNEILALALDNVIQSNKLDGWRDGGIKERKLRLAINNLLKNDEHTDNIME | -0.0341
43 | HMIKRETNDNPVDPASLSLGDRVKILTLNQNGEIISLPDEKGLLQVQVGIMKIGVNVSDIMLI | -0.9
44 | HMADLVYLRKRLQDAIAQLPEDMRTAYTLFQIARRSIREIAELTGASESLVKVRIHRAKGKLQELLEDLR | -2.57
45 | HMSNEKVVKFAQELLVDEERSAISPALISAKIDQVLMFKPAWNEGLDRDAVVNELVRRFSIW | -1.24
46 | HMLDIPEVGQAVQVRGRLGTVFSVAPYDGREGRLHLVTVDYLDDARPPENDEILWEIESGARILG | -0.698
47 | HMETGNEDYRVGKELAYDGNYKAATIYLMKSIKDDPNNPDAFNMLGFSHRKLGNNDEAYIYYNKALEL | -0.275
48 | HMYLSNPTYRGDSLVDALTQIGVDASFASRRDLARKNGIENYTGSAKQNLELLQLLREGRLR | 0.402
49 | HMNYSIVNVGFNNKSLFLRSAPGYSASRLLLPFATERAFVRETLSNGWSRVIVRGTEGYLPTEYVAD | 0.345
50 | HMALPQPDDDRQDTKKRILDMAEDLLLTRGFNAFSYQHISSELGMKNAAIHYHYPKKNDLGVAVIQRYRRR | 0.128
51 | HMQMRKENKILVTDIGEIDEVKVIFDDDNKPYLYSYNGEDEFYRPDETYKFFDNKEQAEEYVREN | 0.0692
52 | HMHQLQLDSRSRLHMTGVIEVESFDEATIVLTTTRGTLIVRGENLHLQLLRLDGGEVLVDGTVDSLSYE | -2.67

Row | Sequence | soluble fraction (log2)
53 | HMTELLTPKQRQVFELALREGYYDVPRRTSITEMARLLGVAKSTLSAQMHRMEATVMSTFAEEIRKQ | -2.01
54 | HMTAPDDFIRAEVTASGKNGMAVAELSKRVRTRFKSFKVRELGYPHLAGYLADVEGVRVYKQGRENWVAK | -0.899
55 | HMKNNYQYIVDQIKQLILDGELIVGDRLPSERDLSEMYQVSRASVREALKALETIGLLESRHGGGNYIVNH | -1.28
56 | HMGPLDIAQLKSDFLGGDAQLARRAWDQLATKAGDEGRDFLISSLGSSDPQIRNRVALGIHES | 0.069
57 | HMGHRQRRARARNRSMLEDIPGLGPKRRQQLLRQFGGLPQLMRAGVAELSQVPGISDSLARKIHAELHPES | -2.73
58 | HMYESAMSDLHARIMSSDDPHGEIYKMLTQSGPEAKYIQDMYNETSIDRGLHPDDDFEDIIDAMVAELDD | -0.68
59 | HMTKAEVLLDLQQRIISEEFLPGSWLVERDLSSEYGLSRTPIREILNKLVILGLISVQKNRGYQVR | -1.29
60 | HMGVMTGAEFVGNTVASVERNLIIDTLKHTMGNRTTAANILGISIRTLRNKLKQYQNEGFDIPE | -1.11
61 | HMSNQLAVPDVTNMKANAAADRLRQQGLRVELKTESSNTVPRGMAIRTDPAASTMVARGGRVTLIISSGKG | -0.248
62 | HMDAPQRVTYLLPHSRGEVVSWLHRQGEVVAQEYEAEGVRVVVDLRYAQIRQAAKQFDVLPAEG | -1.24
63 | HMSGRPPTYTAEERSAVIAAALSRPADLGLPFASWTLDRLVAYLGEKGIGMKRSRMSEVLLAEGLKW | -2.02
64 | HMELGWYVRLRRRELGLSVTALAEKAGMSQSYLSQIETGDRGNPSPESLRSLAEALEVSPRELESLV | -2.82
65 | HMGSTVRIVVPAADIPAYKDIQPSDLEYREVPKDEISEDAVTDPQEVINKYSTSPLYAGWPINKNIIET | -0.0405
66 | HMKFPNVGENLRLLRQEMGISLDKASKMTGVSKAMLGQIERGESSPTVSTLWKISSGFKINFTTLLSE | -2.92
67 | HMGPVRRDLEINGRMVPLTIREHARATRITLRIEPGGQALRLTIPPGLPTREVDSFLTRHHGWLMTKLAHI | -2.47
68 | HMQSKDDLLDTFRVVKGNAALLNDQNKKLIRSLKVSSFGFTGITDQAAEVKKEMPDVLLEKASIEDILF | 0.0597
69 | HMDSAFVSDIRDAFDEAGVDSYRFFGTHSFKRGGVQLYRLLGVSDQEIKERGHWQTFSAYFAYVQA | 0.164
70 | HMIIENIVVEIKGEVYNPGLYILEQGSRINDLIELSGGFTKDANGTDLNLAKVLSDGEVIIVSKKG | -1.29
71 | HMSGTESMIEGRGEARTAIDGEGKVFFQGEYWTAQSDQFIPQGAKVRIKKVEGLNLIVEEIK | 0.065
72 | HMTITDDETHKVLEEGASRMSEGLTFRDLVDLDRLHLTARGVIQKVLNENRIDADVDTIANMAQKLVARVS | -0.0881
73 | HMDTQKYDLNDDGRFDVQDVTYLQIKIAGDGELTDNQKKIADYNNDGKIDVQDVTSAQMLIS | 0.023
74 | HMLGKSNAERQLDLILGAIERSITGVSRSKLMQAYHLDSRGATAAFETLEQRGLITRSKSGRTELLIPTRV | -1.78
75 | HMHGEAVVVPNVKGLPMRQAENEIYKQSLKAVAIDSSYVKGMPPGAILEQNPAGGSKVKKGRTVYLTINMD | -0.268
76 | HMHLKDEHGLTPKQRAFADEYVITLNATVSYKKIYSVKRDSVASTNGSRLLGNANVKAYIDKRLEE | -2.26
